Laboratory results published in patent US20200199241A1 (Chugai, published 2020).
Changes are numbered by the printed parent chain. Names and notes keep the numbering of the source.

B1: GpH7-B3 variant E269V/GpL16-k0 (antibody, human IgG1)
heavy: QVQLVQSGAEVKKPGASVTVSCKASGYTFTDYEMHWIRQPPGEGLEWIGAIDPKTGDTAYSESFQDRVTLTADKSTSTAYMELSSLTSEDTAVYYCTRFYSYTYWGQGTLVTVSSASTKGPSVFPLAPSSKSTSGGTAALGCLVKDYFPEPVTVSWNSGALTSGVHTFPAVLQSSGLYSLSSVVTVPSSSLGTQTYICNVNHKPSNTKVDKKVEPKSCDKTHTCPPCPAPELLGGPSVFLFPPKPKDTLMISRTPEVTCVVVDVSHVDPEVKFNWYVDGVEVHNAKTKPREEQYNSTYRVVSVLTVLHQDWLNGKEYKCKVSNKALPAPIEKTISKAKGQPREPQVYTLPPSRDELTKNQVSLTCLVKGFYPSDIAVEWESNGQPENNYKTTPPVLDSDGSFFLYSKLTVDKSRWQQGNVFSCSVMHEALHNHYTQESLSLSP
light: DIVMTQSPLSLPVTPGEPASISCQASESLVHSNRNTYLHWYLQKPGQSPQLLIYKVSNRFSGVPDRFSGSGSGTDFTLKISRVEAEDVGVYYCSQNTHVPPTFGQGTKVEIE
notes: copies: 2 + 2
B2: GpH7-B3 variant G237R/GpL16-k0 (antibody, human IgG1)
heavy: not shown
light: B1 light
notes: copies: 2 + 2
B3: GpH7-B3 variant G237H/GpL16-k0 (antibody, human IgG1)
heavy: not shown
light: B1 light
notes: copies: 2 + 2
B4: GpH7-B3 variant E2698/GpL16-k0 (antibody, human IgG1)
heavy: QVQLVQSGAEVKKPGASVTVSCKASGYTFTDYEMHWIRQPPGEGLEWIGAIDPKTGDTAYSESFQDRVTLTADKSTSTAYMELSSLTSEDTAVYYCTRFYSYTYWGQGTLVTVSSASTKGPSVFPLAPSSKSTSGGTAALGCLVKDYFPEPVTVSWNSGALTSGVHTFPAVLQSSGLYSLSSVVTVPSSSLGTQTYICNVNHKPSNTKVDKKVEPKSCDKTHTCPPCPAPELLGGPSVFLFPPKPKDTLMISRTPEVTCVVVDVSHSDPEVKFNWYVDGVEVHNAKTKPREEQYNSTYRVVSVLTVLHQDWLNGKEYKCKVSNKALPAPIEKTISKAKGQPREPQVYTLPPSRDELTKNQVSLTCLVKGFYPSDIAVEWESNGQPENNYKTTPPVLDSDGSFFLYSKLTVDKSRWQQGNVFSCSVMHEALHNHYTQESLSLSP
light: B1 light
notes: read as E269S (misprint of S as 8); copies: 2 + 2
B5: GpH7-B3 variant G236M/GpL16-k0 (antibody, human IgG1)
heavy: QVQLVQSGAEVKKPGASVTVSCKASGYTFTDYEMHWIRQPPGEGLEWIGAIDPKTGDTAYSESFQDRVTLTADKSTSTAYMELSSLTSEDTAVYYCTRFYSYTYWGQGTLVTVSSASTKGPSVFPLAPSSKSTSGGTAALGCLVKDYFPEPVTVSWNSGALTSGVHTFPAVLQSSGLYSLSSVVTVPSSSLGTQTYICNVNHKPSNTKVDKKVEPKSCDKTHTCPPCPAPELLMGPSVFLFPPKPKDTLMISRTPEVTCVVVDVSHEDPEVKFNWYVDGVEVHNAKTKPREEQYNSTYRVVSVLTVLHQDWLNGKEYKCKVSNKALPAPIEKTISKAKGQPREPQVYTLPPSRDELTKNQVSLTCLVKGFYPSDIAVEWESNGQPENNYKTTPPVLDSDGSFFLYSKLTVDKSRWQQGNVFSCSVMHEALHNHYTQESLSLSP
light: B1 light
notes: copies: 2 + 2
B6: GpH7-B3 variant G237N/GpL16-k0 (antibody, human IgG1)
heavy: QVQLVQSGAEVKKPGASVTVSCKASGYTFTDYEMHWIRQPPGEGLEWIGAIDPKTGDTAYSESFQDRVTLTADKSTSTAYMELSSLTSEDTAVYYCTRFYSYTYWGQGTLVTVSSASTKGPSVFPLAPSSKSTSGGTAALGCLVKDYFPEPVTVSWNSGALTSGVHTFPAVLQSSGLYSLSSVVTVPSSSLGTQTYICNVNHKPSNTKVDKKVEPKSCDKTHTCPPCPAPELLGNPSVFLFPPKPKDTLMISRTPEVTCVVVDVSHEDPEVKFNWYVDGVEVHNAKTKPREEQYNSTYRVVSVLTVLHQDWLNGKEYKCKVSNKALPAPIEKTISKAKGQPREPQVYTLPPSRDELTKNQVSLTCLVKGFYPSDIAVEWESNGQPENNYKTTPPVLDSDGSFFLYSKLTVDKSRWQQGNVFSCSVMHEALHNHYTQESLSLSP
light: B1 light
notes: copies: 2 + 2
B7: GpH7-B3 variant G236F/GpL16-k0 (antibody, human IgG1)
heavy: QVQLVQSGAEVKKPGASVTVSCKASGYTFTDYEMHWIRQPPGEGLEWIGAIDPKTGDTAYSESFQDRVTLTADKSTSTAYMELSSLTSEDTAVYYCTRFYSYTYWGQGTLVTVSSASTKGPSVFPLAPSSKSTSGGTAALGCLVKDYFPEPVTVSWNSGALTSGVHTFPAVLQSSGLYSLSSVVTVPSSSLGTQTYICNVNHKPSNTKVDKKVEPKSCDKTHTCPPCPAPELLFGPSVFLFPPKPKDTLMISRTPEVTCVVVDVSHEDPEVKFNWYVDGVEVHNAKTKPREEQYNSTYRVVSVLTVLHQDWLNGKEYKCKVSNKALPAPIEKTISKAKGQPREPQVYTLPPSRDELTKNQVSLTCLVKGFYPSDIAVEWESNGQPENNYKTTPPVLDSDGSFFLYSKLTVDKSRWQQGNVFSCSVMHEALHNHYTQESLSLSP
light: B1 light
notes: copies: 2 + 2
B8: GpH7-B3 variant G236N/GpL16-k0 (antibody, human IgG1)
heavy: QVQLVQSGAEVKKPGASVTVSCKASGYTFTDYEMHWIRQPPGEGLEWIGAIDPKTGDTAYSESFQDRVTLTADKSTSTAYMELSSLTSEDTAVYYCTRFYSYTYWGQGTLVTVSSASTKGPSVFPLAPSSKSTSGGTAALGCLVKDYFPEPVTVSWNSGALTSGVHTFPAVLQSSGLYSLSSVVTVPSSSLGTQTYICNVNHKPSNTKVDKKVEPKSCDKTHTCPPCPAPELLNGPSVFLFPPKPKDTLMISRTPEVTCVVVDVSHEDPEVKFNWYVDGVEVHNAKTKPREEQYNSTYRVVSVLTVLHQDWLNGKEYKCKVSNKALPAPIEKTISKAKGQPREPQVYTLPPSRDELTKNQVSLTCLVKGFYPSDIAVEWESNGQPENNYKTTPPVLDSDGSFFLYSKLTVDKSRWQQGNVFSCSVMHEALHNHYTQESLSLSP
light: B1 light
notes: copies: 2 + 2
B9: GpH7-B3 variant G237L/GpL16-k0 (antibody, human IgG1)
heavy: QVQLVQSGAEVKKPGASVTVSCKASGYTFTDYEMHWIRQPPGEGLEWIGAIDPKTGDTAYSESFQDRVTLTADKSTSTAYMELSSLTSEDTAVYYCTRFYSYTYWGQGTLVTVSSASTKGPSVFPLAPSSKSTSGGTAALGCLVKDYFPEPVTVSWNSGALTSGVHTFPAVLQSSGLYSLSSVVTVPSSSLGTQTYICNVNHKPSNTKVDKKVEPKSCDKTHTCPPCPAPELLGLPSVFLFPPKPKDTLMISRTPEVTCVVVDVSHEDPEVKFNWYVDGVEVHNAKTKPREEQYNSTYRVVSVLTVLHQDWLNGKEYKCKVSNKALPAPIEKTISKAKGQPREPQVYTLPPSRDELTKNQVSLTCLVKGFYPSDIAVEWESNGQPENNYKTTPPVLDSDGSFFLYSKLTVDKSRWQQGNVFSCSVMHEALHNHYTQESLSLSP
light: B1 light
notes: copies: 2 + 2
B10: GpH7-B3 variant G237M/GpL16-k0 (antibody, human IgG1)
heavy: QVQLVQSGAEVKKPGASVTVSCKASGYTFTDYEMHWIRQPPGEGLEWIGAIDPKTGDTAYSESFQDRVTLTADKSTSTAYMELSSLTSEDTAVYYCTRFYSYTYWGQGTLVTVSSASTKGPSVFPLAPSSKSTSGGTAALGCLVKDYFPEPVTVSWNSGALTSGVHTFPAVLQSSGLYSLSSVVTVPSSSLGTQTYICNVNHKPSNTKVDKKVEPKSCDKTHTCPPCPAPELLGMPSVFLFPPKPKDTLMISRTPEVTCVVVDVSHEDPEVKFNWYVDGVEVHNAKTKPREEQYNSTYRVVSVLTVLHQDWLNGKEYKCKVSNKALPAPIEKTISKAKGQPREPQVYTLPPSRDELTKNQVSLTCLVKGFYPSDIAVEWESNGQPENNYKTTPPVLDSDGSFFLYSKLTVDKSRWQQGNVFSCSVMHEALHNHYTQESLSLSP
light: B1 light
notes: copies: 2 + 2
B11: GpH7-B3 variant G237D/GpL16-k0 (antibody, human IgG1)
heavy: not shown
light: B1 light
notes: copies: 2 + 2
B12: GpH7-B3 variant G236Y/GpL16-k0 (antibody, human IgG1)
heavy: not shown
light: B1 light
notes: copies: 2 + 2
B13: GpH7-B3 variant G236R/GpL16-k0 (antibody, human IgG1)
heavy: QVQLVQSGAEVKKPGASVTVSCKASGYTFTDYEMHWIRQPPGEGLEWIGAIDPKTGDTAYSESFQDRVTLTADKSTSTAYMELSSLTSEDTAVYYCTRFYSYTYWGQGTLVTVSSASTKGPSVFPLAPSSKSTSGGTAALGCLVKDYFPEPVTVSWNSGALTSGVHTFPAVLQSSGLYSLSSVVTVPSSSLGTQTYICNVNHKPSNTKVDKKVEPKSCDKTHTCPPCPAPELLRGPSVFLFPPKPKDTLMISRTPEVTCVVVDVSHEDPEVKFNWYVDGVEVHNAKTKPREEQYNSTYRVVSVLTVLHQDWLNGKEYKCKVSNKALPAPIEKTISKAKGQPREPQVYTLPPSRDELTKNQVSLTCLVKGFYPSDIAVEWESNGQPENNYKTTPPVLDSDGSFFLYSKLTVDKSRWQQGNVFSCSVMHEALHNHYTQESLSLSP
light: B1 light
notes: copies: 2 + 2
B14: GpH7-B3 variant G237S/GpL16-k0 (antibody, human IgG1)
heavy: not shown
light: B1 light
notes: copies: 2 + 2
B15: GpH7-B3 variant G237E/GpL16-k0 (antibody, human IgG1)
heavy: not shown
light: B1 light
notes: copies: 2 + 2
B16: GpH7-B3 variant G236Q/GpL16-k0 (antibody, human IgG1)
heavy: not shown
light: B1 light
notes: copies: 2 + 2
B17: GpH7-B3 variant E269Y/GpL16-k0 (antibody, human IgG1)
heavy: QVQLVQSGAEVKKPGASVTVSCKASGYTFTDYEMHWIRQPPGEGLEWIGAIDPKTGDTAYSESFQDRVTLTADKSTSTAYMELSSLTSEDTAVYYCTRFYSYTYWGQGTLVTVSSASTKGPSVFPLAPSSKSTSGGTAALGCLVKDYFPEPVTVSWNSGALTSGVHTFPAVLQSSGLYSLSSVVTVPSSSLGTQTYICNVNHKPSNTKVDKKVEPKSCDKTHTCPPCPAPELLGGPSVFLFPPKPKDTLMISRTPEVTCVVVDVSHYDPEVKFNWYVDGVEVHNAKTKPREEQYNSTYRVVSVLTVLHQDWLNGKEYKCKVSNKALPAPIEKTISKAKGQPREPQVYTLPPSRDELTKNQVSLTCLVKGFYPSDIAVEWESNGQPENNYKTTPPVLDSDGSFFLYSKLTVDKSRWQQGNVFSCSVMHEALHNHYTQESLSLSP
light: B1 light
notes: copies: 2 + 2
B18: GpH7-B3 variant G237T/GpL16-k0 (antibody, human IgG1)
heavy: not shown
light: B1 light
notes: copies: 2 + 2
B19: GpH7-B3 variant G236P/GpL16-k0 (antibody, human IgG1)
heavy: not shown
light: B1 light
notes: copies: 2 + 2
B20: GpH7-B3 variant G237Q/GpL16-k0 (antibody, human IgG1)
heavy: not shown
light: B1 light
notes: copies: 2 + 2
B21: GpH7-B3 variant G236H/GpL16-k0 (antibody, human IgG1)
heavy: not shown
light: B1 light
notes: copies: 2 + 2
B22: GpH7-B3 variant G236L/GpL16-k0 (antibody, human IgG1)
heavy: not shown
light: B1 light
notes: copies: 2 + 2
B23: GpH7-B3 variant G237I/GpL16-k0 (antibody, human IgG1)
heavy: not shown
light: B1 light
notes: copies: 2 + 2

Biological target: T1, human FcγRIIb (human, UniProt P31994 43-217, limits assumed)
T1 construct: also called FcgRIIb
T1 sequence: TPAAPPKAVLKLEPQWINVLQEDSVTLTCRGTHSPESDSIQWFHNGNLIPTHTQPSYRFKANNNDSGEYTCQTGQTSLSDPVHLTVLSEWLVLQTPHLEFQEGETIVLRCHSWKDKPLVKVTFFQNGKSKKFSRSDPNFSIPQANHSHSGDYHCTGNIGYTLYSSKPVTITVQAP
Assay: SPR (Biacore);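 further: antibody variants captured on sensor chip, Fcγ receptor flowed over at 25 °C, bound receptor normalized to amount of captured antibody, expressed relative to reference antibody set as 100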
Protocol: (§1) Interaction between each modified antibody and Fcγ receptor prepared in the manner described above was analyzed using the BIACORE™ T100 surface plasmon resonance system (GE Healthcare), BIACORE™ T200 surface plasmon resonance system (GE Healthcare), BIACORE™ A100 surface plasmon resonance system or BIACORE™ 4000 surface plasmon resonance system. HBS-EP+ (GE Healthcare) was used for the running buffer, and measurements were carried out at 25° C. The chips used were chips in which antigen peptides, Protein A (Thermo Scientific), Protein A/G (Thermo Scientific) or Protein L (ACTIGEN® protein (Alltech or BioVision) were immobilized on the Series S Sensor Chip CMS (GE Healthcare) or Series S Sensor Chip CM4 (GE Healthcare) by amine coupling, or chips in which preliminarily biotinylated antigen peptides were allowed to interact and then immobilized on the Series S Sensor Chip SA (certified) (GE Healthcare). The target antibodies were captured on these sensor chips, Fcγ receptor diluted with the running buffer was allowed to interact, followed by measurement of the amount of bound antibody. The amounts bound were compared between antibodies. However, since the amount of Fcγ receptor bound depends on the amount of captured antibody, the values used for comparison were first corrected by dividing the amount of Fcγ receptor bound by the captured amount of each antibody. Through reaction with 10 mM glycine-HCl at pH 1.5, the sensor chips were regenerated by washing off antibody captured on the sensor chips and used repeatedly.
(§2) Binding strength was evaluated according to the following method based on the results of analyzing the interaction with each FcγR. […] That value was then further multiplied by 100, and the resulting value was used as an indicator of relative binding activity to each FcγR.

Binder | relative binding activity
B1 | 10 % of GpH7-B3/GpL16-k0
B2 | -1 % of GpH7-B3/GpL16-k0
B3 | 11 % of GpH7-B3/GpL16-k0
B4 | 19 % of GpH7-B3/GpL16-k0
B5 | 14 % of GpH7-B3/GpL16-k0
B6 | 65 % of GpH7-B3/GpL16-k0
B7 | 15 % of GpH7-B3/GpL16-k0
B8 | 75 % of GpH7-B3/GpL16-k0
B9 | 51 % of GpH7-B3/GpL16-k0
B10 | 36 % of GpH7-B3/GpL16-k0
B11 | 95 % of GpH7-B3/GpL16-k0
B12 | 16 % of GpH7-B3/GpL16-k0
B13 | 0 % of GpH7-B3/GpL16-k0
B14 | 26 % of GpH7-B3/GpL16-k0
B15 | 18 % of GpH7-B3/GpL16-k0
B16 | 19 % of GpH7-B3/GpL16-k0
B17 | 13 % of GpH7-B3/GpL16-k0
B18 | 7 % of GpH7-B3/GpL16-k0
B19 | 1 % of GpH7-B3/GpL16-k0
B20 | 5 % of GpH7-B3/GpL16-k0
B21 | 6 % of GpH7-B3/GpL16-k0
B22 | 4 % of GpH7-B3/GpL16-k0
B23 | 29 % of GpH7-B3/GpL16-k0

Biological target: T2, human FcγRIIa(H) (human, UniProt P12318 36-217)
T2 construct: also called FcgRIIaH; FcγRIIa type H
T2 sequence: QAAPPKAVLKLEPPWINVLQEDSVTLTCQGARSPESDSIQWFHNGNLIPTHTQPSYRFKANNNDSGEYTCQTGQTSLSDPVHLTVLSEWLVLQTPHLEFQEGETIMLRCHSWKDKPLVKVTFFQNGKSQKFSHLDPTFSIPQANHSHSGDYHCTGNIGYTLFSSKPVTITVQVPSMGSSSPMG
Assay: SPR (Biacore);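 further: antibody variants captured on sensor chip, Fcγ receptor flowed over at 25 °C, bound receptor normalized to amount of captured antibody, expressed relative to reference antibody set as 100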
Protocol: as §1, §2

Binder | relative binding activity
B1 | 35 % of GpH7-B3/GpL16-k0
B2 | -1 % of GpH7-B3/GpL16-k0
B3 | 1 % of GpH7-B3/GpL16-k0
B4 | 48 % of GpH7-B3/GpL16-k0
B5 | 42 % of GpH7-B3/GpL16-k0
B6 | 0 % of GpH7-B3/GpL16-k0
B7 | 68 % of GpH7-B3/GpL16-k0
B8 | 81 % of GpH7-B3/GpL16-k0
B9 | 1 % of GpH7-B3/GpL16-k0
B10 | 1 % of GpH7-B3/GpL16-k0
B11 | 0 % of GpH7-B3/GpL16-k0
B12 | 86 % of GpH7-B3/GpL16-k0
B13 | 3 % of GpH7-B3/GpL16-k0
B14 | 3 % of GpH7-B3/GpL16-k0
B15 | 1 % of GpH7-B3/GpL16-k0
B16 | 80 % of GpH7-B3/GpL16-k0
B17 | 43 % of GpH7-B3/GpL16-k0
B18 | 2 % of GpH7-B3/GpL16-k0
B19 | 22 % of GpH7-B3/GpL16-k0
B20 | 0 % of GpH7-B3/GpL16-k0
B21 | 91 % of GpH7-B3/GpL16-k0
B22 | 23 % of GpH7-B3/GpL16-k0
B23 | 6 % of GpH7-B3/GpL16-k0

Biological target: T3, human FcγRIIIa(F) (human, UniProt P08637 17-208, limits assumed)
T3 construct: also called FcgRIIIaF; allotype F158
T3 sequence (P08637 other isoform, or with tags, fused parts or gaps limits assumed): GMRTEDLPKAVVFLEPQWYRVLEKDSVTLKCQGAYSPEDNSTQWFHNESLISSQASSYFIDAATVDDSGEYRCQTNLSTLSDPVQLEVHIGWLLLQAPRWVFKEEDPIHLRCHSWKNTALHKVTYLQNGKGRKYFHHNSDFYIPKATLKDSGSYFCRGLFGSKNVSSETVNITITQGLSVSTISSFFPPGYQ
Assay: SPR (Biacore);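 further: antibody variants captured on sensor chip, Fcγ receptor flowed over at 25 °C, bound receptor normalized to amount of captured antibody, expressed relative to reference antibody set as 100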
Protocol: as §1, §2

Binder | relative binding activity
B1 | 12 % of GpH7-B3/GpL16-k0
B2 | 0 % of GpH7-B3/GpL16-k0
B3 | 0 % of GpH7-B3/GpL16-k0
B4 | 29 % of GpH7-B3/GpL16-k0
B5 | 9 % of GpH7-B3/GpL16-k0
B6 | 0 % of GpH7-B3/GpL16-k0
B7 | 24 % of GpH7-B3/GpL16-k0
B8 | 8 % of GpH7-B3/GpL16-k0
B9 | 0 % of GpH7-B3/GpL16-k0
B10 | 0 % of GpH7-B3/GpL16-k0
B11 | 0 % of GpH7-B3/GpL16-k0
B12 | 39 % of GpH7-B3/GpL16-k0
B13 | -1 % of GpH7-B3/GpL16-k0
B14 | 1 % of GpH7-B3/GpL16-k0
B15 | 0 % of GpH7-B3/GpL16-k0
B16 | 8 % of GpH7-B3/GpL16-k0
B17 | 14 % of GpH7-B3/GpL16-k0
B18 | 2 % of GpH7-B3/GpL16-k0
B19 | 1 % of GpH7-B3/GpL16-k0
B20 | 0 % of GpH7-B3/GpL16-k0
B21 | 7 % of GpH7-B3/GpL16-k0
B22 | 1 % of GpH7-B3/GpL16-k0
B23 | 2 % of GpH7-B3/GpL16-k0

Biological target: T4, human FcγRIa (human, UniProt P12314 16-292, limits assumed)
T4 construct: also called FcgRIa; FcγRI (CD64)
T4 sequence (P12314 16-292 limits assumed): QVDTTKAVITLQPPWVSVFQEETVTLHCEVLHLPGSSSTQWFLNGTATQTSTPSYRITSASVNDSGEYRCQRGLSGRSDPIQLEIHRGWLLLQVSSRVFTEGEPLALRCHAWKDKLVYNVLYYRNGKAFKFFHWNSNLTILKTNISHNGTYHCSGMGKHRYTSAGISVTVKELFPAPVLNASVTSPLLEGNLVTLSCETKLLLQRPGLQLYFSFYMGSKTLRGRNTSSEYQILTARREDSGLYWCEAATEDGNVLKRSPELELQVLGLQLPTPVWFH
Assay: SPR (Biacore);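 further: antibody variants captured on sensor chip, Fcγ receptor flowed over at 25 °C, bound receptor normalized to amount of captured antibody, expressed relative to reference antibody set as 100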
Protocol: as §1, §2

Binder | relative binding activity
B1 | 92 % of GpH7-B3/GpL16-k0
B2 | 3 % of GpH7-B3/GpL16-k0
B3 | 12 % of GpH7-B3/GpL16-k0
B4 | 93 % of GpH7-B3/GpL16-k0
B5 | 70 % of GpH7-B3/GpL16-k0
B6 | 15 % of GpH7-B3/GpL16-k0
B7 | 81 % of GpH7-B3/GpL16-k0
B8 | 42 % of GpH7-B3/GpL16-k0
B9 | 7 % of GpH7-B3/GpL16-k0
B10 | 14 % of GpH7-B3/GpL16-k0
B11 | 26 % of GpH7-B3/GpL16-k0
B12 | 76 % of GpH7-B3/GpL16-k0
B13 | 6 % of GpH7-B3/GpL16-k0
B14 | 50 % of GpH7-B3/GpL16-k0
B15 | 18 % of GpH7-B3/GpL16-k0
B16 | 45 % of GpH7-B3/GpL16-k0
B17 | 97 % of GpH7-B3/GpL16-k0
B18 | 27 % of GpH7-B3/GpL16-k0
B19 | 2 % of GpH7-B3/GpL16-k0
B20 | 14 % of GpH7-B3/GpL16-k0
B21 | 34 % of GpH7-B3/GpL16-k0
B22 | 18 % of GpH7-B3/GpL16-k0
B23 | 6 % of GpH7-B3/GpL16-k0

Biological target: T5, human FcγRIIa(R) (human, UniProt P12318 36-217)
T5 construct: also called FcgRIIaR; FcγRIIa type R
T5 chain: T2 sequence with H133R
Assay: SPR (Biacore)
Protocol: as §1, §2

Binder | relative binding activity
B1 | 16 % of GpH7-B3/GpL16-k0
B2 | 0 % of GpH7-B3/GpL16-k0
B3 | 14 % of GpH7-B3/GpL16-k0
B4 | 33 % of GpH7-B3/GpL16-k0
B5 | 23 % of GpH7-B3/GpL16-k0
B6 | 75 % of GpH7-B3/GpL16-k0
B7 | 23 % of GpH7-B3/GpL16-k0
B8 | 54 % of GpH7-B3/GpL16-k0
B9 | 58 % of GpH7-B3/GpL16-k0
B10 | 56 % of GpH7-B3/GpL16-k0
B11 | 74 % of GpH7-B3/GpL16-k0
B12 | 22 % of GpH7-B3/GpL16-k0
B13 | 0 % of GpH7-B3/GpL16-k0
B14 | 45 % of GpH7-B3/GpL16-k0
B15 | 23 % of GpH7-B3/GpL16-k0
B16 | 38 % of GpH7-B3/GpL16-k0
B17 | 21 % of GpH7-B3/GpL16-k0
B18 | 13 % of GpH7-B3/GpL16-k0
B19 | 12 % of GpH7-B3/GpL16-k0
B20 | 15 % of GpH7-B3/GpL16-k0
B21 | 32 % of GpH7-B3/GpL16-k0
B22 | 20 % of GpH7-B3/GpL16-k0
B23 | 69 % of GpH7-B3/GpL16-k0
